Source: US20200171174A1 (Astellas, published 2020)

Target: T1, human cancer-specific MUC1 (human, UniProt P15941 24-1255)
T1 construct: whole, on cells; Endogenous MUC1 with cancer-specific incomplete O-glycosylation on cancer cells; also called Mucin 1; human MUC1
Assay: Cell ELISA on formalin-fixed T-47D cells, HRP anti-human Ig kappa, luminescence
Protocol: Specifically, breast cancer cell line T-47D cells (purchasable from ATCC; HTB-133) expressing human cancer-specific MUC1 were inoculated at 0.75×10⁴ cells per well to a 96-well ELISA plate coated with collagen I, and cultured overnight. […] Then, a horseradish peroxidase (HRP)-labeled goat anti-human Igκ antibody (Southern Biotechnology Associates, Inc.) was reacted as a secondary antibody. ECL Prime Western Blotting Detection Reagent (GE Healthcare Japan Corp.) was added thereto for luminescence, and the degree of the luminescence was examined.

Row | Binder | binding activity relative to 1B2 Fab [times]
1 | P10-2 Fab (Fab, V domains shown, heavy chain N-terminal glutamine modified into pyroglutamic acid in a great majority of purified antibodies, expressed in Expi293F cells, purified on KappaSelect; also called anti-human MUC1 antibody Fab fragment P10-2) VH: QVQLVQSGAEVKKPGASVKVSCKASGYTFTNYGLSWVRQAPGQGLEWMGENHPGSGIIYHNEKFRGRVTLTADRSTSTAYMELSSLRSEDTAVYYCARSSGTRGFDYWGQGTLVTVSS VL: DVVMTQTPLSLSVTPGQPASISCRSSQSIVHSNGNTYLEWYLQKPGQSPQLLIYRVSNRFSGVPDRFSGSGSGTDFTLKISRVEAEDVGVYYCFQGSHGPWTFGQGTKLEIKR | ≥ 10
2 | P10-1 Fab (Fab, V domains shown, expressed in Expi293F cells, purified on KappaSelect; also called anti-human MUC1 antibody Fab fragment P10-1) VH: QVQLVQSGAEVKKPGASVKVSCKASGYTFTNYGLSWVRQAPGQGLEWMGENHPGSGIIYHNEKFRGRVTLTADRSTSTAYMELSSLRSEDTAVYYCARSSGTRGFAYWGQGTLVTVSS VL: DVVMTQTPLSLSVTPGQPASISCRSSQSIVHSNGNTYLEWYLQKPGQSPQLLIYRVSNRFSGVPDRFSGSGSGTDFTLKISRVEAEDVGVYYCFQGSHGPWTFGQGTKLEIKR | ≥ 10
